Measurements: patent publication US20200330548A1 (SYNERGY PHARMACEUTICALS, published 2020)
Bridge positions count the residues as written; N and C are the ends. Square brackets hold non-standard residues; d marks the D form. Ends that are not written are not given here.

Experiments:
[1] = molecular target: guanylate cyclase-C (GC-C) on T84 cells (human, UniProt P25092 24-1073); assay: cell-based or functional assay
[2] = molecular target: T1, guanylate cyclase-C (GC-C) on rat jejunum tissue (rat, UniProt P23897 23-1072); assay: cell-based or functional assay
T1 sequence (looked up): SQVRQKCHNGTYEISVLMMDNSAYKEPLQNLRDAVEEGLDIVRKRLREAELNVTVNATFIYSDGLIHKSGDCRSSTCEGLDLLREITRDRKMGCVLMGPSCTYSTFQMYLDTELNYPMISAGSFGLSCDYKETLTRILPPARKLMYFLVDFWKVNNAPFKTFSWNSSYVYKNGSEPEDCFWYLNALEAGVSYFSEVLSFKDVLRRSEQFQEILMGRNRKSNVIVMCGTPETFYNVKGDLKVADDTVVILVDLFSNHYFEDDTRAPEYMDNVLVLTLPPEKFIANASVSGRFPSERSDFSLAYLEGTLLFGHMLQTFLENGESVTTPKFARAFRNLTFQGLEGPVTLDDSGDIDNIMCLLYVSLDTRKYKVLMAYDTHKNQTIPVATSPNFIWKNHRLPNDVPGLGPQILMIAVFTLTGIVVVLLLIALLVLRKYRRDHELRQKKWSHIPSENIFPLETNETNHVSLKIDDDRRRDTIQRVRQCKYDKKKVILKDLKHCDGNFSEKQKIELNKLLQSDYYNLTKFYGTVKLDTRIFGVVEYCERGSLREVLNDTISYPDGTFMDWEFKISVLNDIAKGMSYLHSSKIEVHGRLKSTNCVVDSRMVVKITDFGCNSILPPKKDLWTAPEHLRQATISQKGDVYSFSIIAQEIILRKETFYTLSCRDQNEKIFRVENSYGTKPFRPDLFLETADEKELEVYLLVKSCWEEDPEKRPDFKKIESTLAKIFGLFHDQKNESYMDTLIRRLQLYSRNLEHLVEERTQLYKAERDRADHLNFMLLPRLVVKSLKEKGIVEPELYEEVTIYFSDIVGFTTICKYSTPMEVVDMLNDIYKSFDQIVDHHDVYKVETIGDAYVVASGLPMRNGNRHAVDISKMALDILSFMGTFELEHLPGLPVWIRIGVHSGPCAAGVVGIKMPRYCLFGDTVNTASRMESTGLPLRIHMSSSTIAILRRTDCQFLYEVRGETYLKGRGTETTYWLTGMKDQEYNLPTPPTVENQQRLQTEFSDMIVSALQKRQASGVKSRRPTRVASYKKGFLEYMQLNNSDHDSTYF

Chain of guanylate cyclase-C (GC-C) on T84 cells (P25092 24-1073): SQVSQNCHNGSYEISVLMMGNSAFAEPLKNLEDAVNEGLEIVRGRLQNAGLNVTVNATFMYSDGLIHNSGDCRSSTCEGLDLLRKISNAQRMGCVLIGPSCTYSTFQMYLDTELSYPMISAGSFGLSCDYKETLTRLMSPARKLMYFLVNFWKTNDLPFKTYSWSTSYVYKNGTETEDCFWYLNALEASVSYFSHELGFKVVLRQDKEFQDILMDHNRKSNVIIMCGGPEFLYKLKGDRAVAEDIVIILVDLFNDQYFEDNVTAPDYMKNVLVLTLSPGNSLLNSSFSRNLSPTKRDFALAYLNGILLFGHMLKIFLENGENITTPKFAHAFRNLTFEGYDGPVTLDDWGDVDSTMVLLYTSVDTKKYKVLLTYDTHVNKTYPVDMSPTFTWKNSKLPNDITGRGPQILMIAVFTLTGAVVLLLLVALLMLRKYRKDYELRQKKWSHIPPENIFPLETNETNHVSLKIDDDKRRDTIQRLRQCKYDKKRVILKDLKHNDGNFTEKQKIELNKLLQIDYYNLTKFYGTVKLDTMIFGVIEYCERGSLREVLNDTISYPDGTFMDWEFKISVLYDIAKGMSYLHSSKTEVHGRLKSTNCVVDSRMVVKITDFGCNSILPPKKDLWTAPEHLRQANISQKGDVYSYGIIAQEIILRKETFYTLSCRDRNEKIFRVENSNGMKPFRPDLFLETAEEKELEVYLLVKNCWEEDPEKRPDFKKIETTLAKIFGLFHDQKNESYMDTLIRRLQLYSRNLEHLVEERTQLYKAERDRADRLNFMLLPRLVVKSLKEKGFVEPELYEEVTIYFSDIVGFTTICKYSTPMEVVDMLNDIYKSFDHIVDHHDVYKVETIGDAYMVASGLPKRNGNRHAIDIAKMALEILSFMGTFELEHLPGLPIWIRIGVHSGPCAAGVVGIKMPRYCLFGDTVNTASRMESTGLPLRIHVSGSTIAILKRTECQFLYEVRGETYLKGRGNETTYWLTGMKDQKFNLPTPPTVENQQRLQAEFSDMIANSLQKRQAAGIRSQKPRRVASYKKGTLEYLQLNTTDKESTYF

- short-circuit current (Isc, chloride current) across T84 cells monolayer, Ussing chamber; EC50 [1]: 169 nM
- short-circuit current (Isc, chloride current) across rat jejunum tissue, Ussing chamber; EC50 [2]: 299 nM
Binder: [dN]DECELCVNVACTGC[dL] (disulfide 4-12, 7-15) [SP-333]
